This note sets out measurements from patent publication US8669345.

One assay concerns the target sNogoR310-Fc (rat) (UniProt Q99M75). In words: SPA, unlabelled Nogo1-40 (x axis Nogo1-40 [M]) displacing 125I-Nogo1-40-C from sNogoR310-Fc; the unit stands on the axis, not in the table.
The target of another assay is Nogo1-40. Kind of assay: SPA competition: Ig-sNogoR1-310 added in rising amount [ug] against binding of 125I-Nogo1-40-C to sNogoR310.
Assay [1] deals with sNgR310 (recombinant fragment of rat NgR1, aa 27-310) (rat) (UniProt Q99M75). In words: SPA, unlabelled Nogo66 (x axis Nogo66 Conc [M]) displacing 125I-Nogo66 from sNogoR310; Bound SPA cpm falls from about 2900 to about 2050; the unit stands on the axis, not in the table.
Chain of sNgR310 (recombinant fragment of rat NgR1, aa 27-310) (rat) (Q99M75 other isoform, or with tags, fused parts or gaps): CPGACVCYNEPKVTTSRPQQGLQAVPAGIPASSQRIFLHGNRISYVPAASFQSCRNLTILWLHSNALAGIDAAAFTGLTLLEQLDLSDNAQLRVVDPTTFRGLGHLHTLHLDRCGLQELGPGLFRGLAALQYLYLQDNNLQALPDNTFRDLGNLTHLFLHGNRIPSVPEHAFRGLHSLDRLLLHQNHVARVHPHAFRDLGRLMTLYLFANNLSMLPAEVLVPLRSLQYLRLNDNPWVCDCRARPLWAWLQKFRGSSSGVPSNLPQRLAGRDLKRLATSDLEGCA

Chain of Nogo1-40 (peptide) (Q9NQC3 1055-1094): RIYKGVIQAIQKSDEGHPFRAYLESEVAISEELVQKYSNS
Chain of Nogo1-40 (Q9NQC3 1055-1094): as above
Chain of sNogoR310-Fc (rat) (Q99M75 other isoform, or with tags, fused parts or gaps): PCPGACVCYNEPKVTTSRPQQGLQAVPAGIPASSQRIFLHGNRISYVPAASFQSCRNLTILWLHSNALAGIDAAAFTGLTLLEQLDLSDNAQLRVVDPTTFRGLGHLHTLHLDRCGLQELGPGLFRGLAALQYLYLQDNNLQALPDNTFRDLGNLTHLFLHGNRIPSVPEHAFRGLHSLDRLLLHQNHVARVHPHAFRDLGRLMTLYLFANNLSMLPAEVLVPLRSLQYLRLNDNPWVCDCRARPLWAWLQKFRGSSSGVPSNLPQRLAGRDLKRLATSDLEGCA

As usually defined, the EC50 is the concentration needed to bring the measured effect to its halfway point. As for Nogo1-40 (peptide), in the assay with sNogoR310-Fc (rat), the EC50 was found to be 0.12 µM.

Usually IC50 stands for the concentration needed to halve the response being measured. Read a low IC50 as greater potency. Substance “sNogoR310-Fc (from UniProt Q99M75 26-310) (Fc fusion)” registered an IC50 in the assay with Nogo1-40 of 0.1 µM.

Consider Nogo66 (ligand), for which the half-maximal effective concentration (EC50) in assay [1] stood at 0.303 µM.
